Data on three molecules can be found in PMC6699074, “Structural and functional characterization of a novel cold-active S-formylglutathione hydrolase (SfSFGH) homolog from Shewanella frigidimarina, a psychrophilic bacterium” (Microbial Cell Factories, 2019).

Series [1] concerns the target S-formylglutathione hydrolase (SfSFGH) from Shewanella frigidimarina (Shewanella frigidimarina). In words: AUC; SfSFGH in 150 mM NaCl, 20 mM Tris-HCl pH 8.0, 20 °C, 40,000 rpm, monitored at 280 nm, analysed with SEDFIT.
Substrate in series [2]: CC(=O)Oc1ccc([N+](=O)[O-])cc1
Kind of series: purified protein. The format is biochemical, Shewanella frigidimarina. Conditions: 20 mM Tris-HCl pH 8.0, 120 mM NaCl, room temperature.

Substrate in series [3]: CCCC(=O)Oc1ccc([N+](=O)[O-])cc1
In words: purified protein. The format is biochemical, Shewanella frigidimarina. Conditions: 20 mM Tris-HCl pH 8.0, 120 mM NaCl, room temperature.

Substrate in series [4]: CCCCCCCC(=O)Oc1ccc([N+](=O)[O-])cc1
Kind of series: purified protein. The format is biochemical, Shewanella frigidimarina. Conditions: 20 mM Tris-HCl pH 8.0, 120 mM NaCl, room temperature.

“S-formylglutathione hydrolase (SfSFGH) from Shewanella frigidimarina (enzyme)” came in with a stoichiometry N in series [1] of 2.

B1: SfSFGH (Shewanella frigidimarina NCIMB 400) (protein)
chain: MTIENMSVNKSFGGWHKQYSHQSQTLNCEMRFAIYLPPQASSGKKVPVLYWLSGLTCTDENFMQKAGAQALAAELGIAIVAPDTSPRGENVADDEGYDLGKGAGFYVNATQAPWNRHYRMYDYVVDELPKLIESMFPVSDKRSIAGHSMGGHGALVIALRNADAYQSVSAFSPISNPINCPWGKKALTAYLGRDSATWMEYDASVLMRQATQFVPALVDQGDADNFLVEQLKPEVLEAAAKVKGYPLELNYREGYDHSYYFISSFIENHLRFHAEHLGK
For the molecule B1, in the series “purified protein [2]”, the Km was 515 (± 42.8) µM and the kcat is given as 0.310 (± 0.0258) s^-1.

B2: SfSFGH (Shewanella frigidimarina NCIMB 400; W182A) (protein)
chain: MTIENMSVNKSFGGWHKQYSHQSQTLNCEMRFAIYLPPQASSGKKVPVLYWLSGLTCTDENFMQKAGAQALAAELGIAIVAPDTSPRGENVADDEGYDLGKGAGFYVNATQAPWNRHYRMYDYVVDELPKLIESMFPVSDKRSIAGHSMGGHGALVIALRNADAYQSVSAFSPISNPINCPAGKKALTAYLGRDSATWMEYDASVLMRQATQFVPALVDQGDADNFLVEQLKPEVLEAAAKVKGYPLELNYREGYDHSYYFISSFIENHLRFHAEHLGK
On to B2, for which, in the series “purified protein [3]”, the Km was 303 ± 49 µM, the Vmax turned out to be 51.7 µM/min, the kcat is 8 ± 0.326 s⁻¹ and the kcat/Km is 26400 M⁻¹ s⁻¹. In addition, in the series “purified protein [2]”, the Km amounted to 1.393 ± 0.136 mM, the Vmax was 323 µM/min, the kcat came out at 1.85 ± 0.092 s⁻¹ and the kcat/Km is 1300 M⁻¹ s⁻¹. In addition, in the series “purified protein [4]”, the Km was 495 ± 85 µM, the Vmax was 28.6 µM/min, the kcat came to 0.144 ± 0.007 s⁻¹ and the kcat/Km was found to be 300 M⁻¹ s⁻¹.

In general, stoichiometry N refers to the number of molecules, sites or subunits per partner or assembly. Broadly, the Vmax is the top rate of the reaction or transport when substrate is in excess. The kcat/Km is the second-order rate constant that governs catalysis at low substrate concentration.
